Test [1] has as its target T1, rProtein A (HiTrap rProtein A FF column) (Staphylococcus aureus, UniProt P38507 37-327).
T1 construct: also called SpA
Description: affinity chromatography.

Test [2] addresses T2, SpA on S. aureus Newman strain cells (Staphylococcus aureus (Newman strain), UniProt A0A0H3K686 37-477).
T2 construct: also called wild type S. aureus Newman
Description: whole cell ELISA. For orientation: ELISA stands for enzyme-linked immunosorbent assay.

The target of test [3] is T3, Recombinant SpA (Biovision), recombinant 4-domain SpA (Staphylococcus aureus, UniProt P38507 37-269).
T3 construct: domain: SpA IgBP domains 1-4; also called SpA 1-4; SpA1-4
Description: double immunodiffusion in agarose gel.

In test [4] the target is T4, Sbi-E (amino acids 28-266) (Staphylococcus aureus, UniProt Q2FVK5 28-266).
T4 construct: range 28-266
Description: double immunodiffusion in agarose gel.

B1: Anti-RSV variant antibody MAB5 (antibody, human IgG1, kappa, V domains shown)
VH: QVTLRESGPALVKPTQTLTLTCTFSGFSLSTAGMSVGWIRQPPGKALEWLADIWWDDKKHYNPSLKDRLTISKDTSKNQVVLKVTNMDPADTATYYCARDMIFNFYFDVWGQGTTVTVSS
VL: DIQMTQSPSTLSASVGDRVTITCSASSRVGYMHWYQQKPGKAPKLLIYDTSKLASGVPSRFSGSGSGTEFTLTISSLQPDDFATYYCFQGSGYPFTFGGGTKLEIKR
notes: also called anti-RSV heavy chain constant region variant; control anti-RSV variant antibody
Consider B1, for which the binding result is reported as “no binding” in test [1]; “no binding” in test [2]; “no binding (tested: 1 mg/ml (from paragraph 493, not on the sheet))” in test [3]; “no binding (tested: 1 mg/ml (from paragraph 493, not on the sheet))” in test [4].

For the origin of these results see US20160115222A1 (published 2016).
